Data as given in the supplement of paper PMC9112550, “Optimization of the antimicrobial peptide Bac7 by deep mutational scanning” (BMC Biology, 2022).

Each sequence was assayed on Escherichia coli TOP10 (assay: shrunken log2 fold change of peptide-encoding DNA abundance (4.5 h post-induction vs induction); higher = less antimicrobial activity (less host growth inhibition)). Conditions: time post-induction: 4.5 h; library: site-saturation at positions 5, 18, 19, 20.
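Note: peptides expressed intracellularly from a pBAD plasmid library in pooled LB shake-flask culture, induced with 0.3% L-arabinose, DNA abundance read by NGS, three biological replicates, DESeq2 with apeglm shrinkage.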

Row | Sequence | shrunken log2 fold change
1 | RRIRYRPPRLPRPRPRPFVCPRP | -0.0345
2 | RRIRRRPPRLPRPRPRPDWYPRP | 0.0693
3 | RRIRTRPPRLPRPRPRPPETPRP | 0.161
4 | RRIRNRPPRLPRPRPRPFYFPRP | -0.718
5 | RRIRERPPRLPRPRPRPQSPPRP | -0.062
6 | RRIRTRPPRLPRPRPRPSNEPRP | -0.34
7 | RRIRVRPPRLPRPRPRPREIPRP | 0.087
8 | RRIRTRPPRLPRPRPRPWSHPRP | -0.113
9 | RRIRARPPRLPRPRPRPYNRPRP | -0.186
10 | RRIRSRPPRLPRPRPRPDLPPRP | -0.246
11 | RRIRRRPPRLPRPRPRPEIRPRP | 0.0292
12 | RRIRDRPPRLPRPRPRPPWMPRP | 0.261
13 | RRIRERPPRLPRPRPRPPAWPRP | 0.0898
14 | RRIRMRPPRLPRPRPRPNYEPRP | -0.122
15 | RRIRHRPPRLPRPRPRPVSHPRP | 0.0628
16 | RRIRQRPPRLPRPRPRPALEPRP | 0.275
17 | RRIRHRPPRLPRPRPRPVTSPRP | -0.000369
18 | RRIRDRPPRLPRPRPRPAENPRP | 0.224
19 | RRIRARPPRLPRPRPRPHDGPRP | 0.373
20 | RRIRFRPPRLPRPRPRPRTTPRP | 0.299
21 | RRIRKRPPRLPRPRPRPCPHPRP | 0.0793
22 | RRIRFRPPRLPRPRPRPFVKPRP | -0.457
23 | RRIRQRPPRLPRPRPRPTEVPRP | -0.018
24 | RRIRLRPPRLPRPRPRPQKEPRP | 0.0466
25 | RRIRARPPRLPRPRPRPWMWPRP | 0.213

Row | Sequence | shrunken log2 fold change
26 | RRIRSRPPRLPRPRPRPHYHPRP | -0.696
27 | RRIRVRPPRLPRPRPRPPYWPRP | 0.121
28 | RRIRVRPPRLPRPRPRPPWPPRP | 0.464
29 | RRIRVRPPRLPRPRPRPWWCPRP | -0.0966
30 | RRIRERPPRLPRPRPRPFAIPRP | -0.122
31 | RRIRVRPPRLPRPRPRPQWNPRP | -0.386
32 | RRIRYRPPRLPRPRPRPLEDPRP | -0.00931
33 | RRIRFRPPRLPRPRPRPCMHPRP | -0.111
34 | RRIRTRPPRLPRPRPRPDCPPRP | -0.245
35 | RRIRLRPPRLPRPRPRPMLEPRP | 0.0968
36 | RRIRYRPPRLPRPRPRPMMSPRP | -0.322
37 | RRIRCRPPRLPRPRPRPFKHPRP | -0.272
38 | RRIRFRPPRLPRPRPRPDDDPRP | 0.114
39 | RRIRLRPPRLPRPRPRPCCWPRP | 0.41
40 | RRIRYRPPRLPRPRPRPGPCPRP | -0.227
41 | RRIRVRPPRLPRPRPRPGNLPRP | -0.101
42 | RRIRTRPPRLPRPRPRPVMFPRP | 0.32
43 | RRIRQRPPRLPRPRPRPIQKPRP | -0.0187
44 | RRIRIRPPRLPRPRPRPFCKPRP | -0.893
45 | RRIRSRPPRLPRPRPRPVWEPRP | 0.118
46 | RRIRKRPPRLPRPRPRPECRPRP | 0.313
47 | RRIRKRPPRLPRPRPRPCGYPRP | 0.25
48 | RRIRWRPPRLPRPRPRPFSSPRP | -0.374
49 | RRIRDRPPRLPRPRPRPQEAPRP | -0.0652
50 | RRIRIRPPRLPRPRPRPVYDPRP | -0.0144

Row | Sequence | shrunken log2 fold change
51 | RRIRFRPPRLPRPRPRPTDEPRP | 0.00361
52 | RRIRTRPPRLPRPRPRPSHCPRP | -0.0229
53 | RRIRTRPPRLPRPRPRPALQPRP | 0.278
54 | RRIRWRPPRLPRPRPRPFRLPRP | -0.394
55 | RRIRVRPPRLPRPRPRPVRLPRP | 0.44
56 | RRIRWRPPRLPRPRPRPHDRPRP | 0.00489
57 | RRIRERPPRLPRPRPRPMNFPRP | -0.192
58 | RRIRSRPPRLPRPRPRPHYLPRP | -0.403
59 | RRIRERPPRLPRPRPRPLHFPRP | -0.141
60 | RRIRSRPPRLPRPRPRPPVKPRP | -0.136
61 | RRIRARPPRLPRPRPRPCTQPRP | 0.148
62 | RRIRLRPPRLPRPRPRPWNHPRP | -0.347
63 | RRIRRRPPRLPRPRPRPHSHPRP | -0.0882
64 | RRIRSRPPRLPRPRPRPHMEPRP | -0.376
65 | RRIRGRPPRLPRPRPRPVWLPRP | 0.649
66 | RRIRLRPPRLPRPRPRPYRFPRP | 0.0498
67 | RRIRARPPRLPRPRPRPEGIPRP | 0.0659
68 | RRIRARPPRLPRPRPRPVHKPRP | 0.2
69 | RRIRLRPPRLPRPRPRPWTFPRP | -0.0155
70 | RRIRIRPPRLPRPRPRPMTDPRP | -0.91
71 | RRIRYRPPRLPRPRPRPPMNPRP | -0.728
72 | RRIRTRPPRLPRPRPRPANGPRP | -0.213
73 | RRIRKRPPRLPRPRPRPLKRPRP | 0.321
74 | RRIRGRPPRLPRPRPRPTMGPRP | 0.875
75 | RRIRWRPPRLPRPRPRPTNCPRP | -0.0666

Row | Sequence | shrunken log2 fold change
76 | RRIRTRPPRLPRPRPRPICMPRP | -0.348
77 | RRIRNRPPRLPRPRPRPEIMPRP | 0.0538
78 | RRIRLRPPRLPRPRPRPGDIPRP | -0.385
79 | RRIRARPPRLPRPRPRPTFAPRP | 0.347
80 | RRIRHRPPRLPRPRPRPTRQPRP | 0.254
81 | RRIRERPPRLPRPRPRPPCPPRP | 1.27
82 | RRIRDRPPRLPRPRPRPINLPRP | -0.129
83 | RRIRIRPPRLPRPRPRPVEVPRP | 0.0961
84 | RRIRMRPPRLPRPRPRPMVSPRP | 0.0423
85 | RRIRYRPPRLPRPRPRPHISPRP | -0.317
86 | RRIRYRPPRLPRPRPRPLITPRP | -0.749
87 | RRIRYRPPRLPRPRPRPVCGPRP | -0.463
88 | RRIRRRPPRLPRPRPRPSSYPRP | -0.0808
89 | RRIRERPPRLPRPRPRPLMSPRP | -0.406
90 | RRIRFRPPRLPRPRPRPEDEPRP | 0.0432
91 | RRIRVRPPRLPRPRPRPSYIPRP | -0.74
92 | RRIRHRPPRLPRPRPRPEQQPRP | 0.096
93 | RRIRVRPPRLPRPRPRPDSLPRP | -0.416
94 | RRIRGRPPRLPRPRPRPINIPRP | 0.00461
95 | RRIRRRPPRLPRPRPRPNHDPRP | 0.196
96 | RRIRNRPPRLPRPRPRPLAAPRP | 0.568
97 | RRIRQRPPRLPRPRPRPFFIPRP | -0.365
98 | RRIRERPPRLPRPRPRPHFTPRP | -0.246
99 | RRIRDRPPRLPRPRPRPTENPRP | 0.277
100 | RRIRTRPPRLPRPRPRPIPWPRP | -0.0529

Row | Sequence | shrunken log2 fold change
101 | RRIRGRPPRLPRPRPRPHICPRP | -0.0626
102 | RRIRHRPPRLPRPRPRPCMSPRP | 0.12
103 | RRIRMRPPRLPRPRPRPRTPPRP | 1.26
104 | RRIRRRPPRLPRPRPRPTRLPRP | 0.612
105 | RRIRNRPPRLPRPRPRPIIDPRP | -0.361
106 | RRIRMRPPRLPRPRPRPLRGPRP | 2.15
107 | RRIRVRPPRLPRPRPRPPHQPRP | 0.0363
108 | RRIRKRPPRLPRPRPRPDMQPRP | -0.0618
109 | RRIRQRPPRLPRPRPRPPRRPRP | 0.852
110 | RRIRVRPPRLPRPRPRPKWGPRP | 0.155
111 | RRIRNRPPRLPRPRPRPRTGPRP | -0.0238
112 | RRIRVRPPRLPRPRPRPFQYPRP | -0.453
113 | RRIRTRPPRLPRPRPRPKCEPRP | 0.118
114 | RRIRERPPRLPRPRPRPLMMPRP | -0.263
115 | RRIRNRPPRLPRPRPRPGKHPRP | -0.0999
116 | RRIRWRPPRLPRPRPRPYVDPRP | -0.171
117 | RRIRLRPPRLPRPRPRPNRRPRP | 0.0365
118 | RRIRFRPPRLPRPRPRPNCSPRP | -0.498
119 | RRIRWRPPRLPRPRPRPNSDPRP | -0.258
120 | RRIRPRPPRLPRPRPRPKGGPRP | 1.33
121 | RRIRERPPRLPRPRPRPCAVPRP | -0.0406
122 | RRIRQRPPRLPRPRPRPTSSPRP | 0.088
123 | RRIRRRPPRLPRPRPRPAGAPRP | 0.497
124 | RRIRARPPRLPRPRPRPWWSPRP | 0.271
125 | RRIRYRPPRLPRPRPRPPMFPRP | -0.806

Row | Sequence | shrunken log2 fold change
126 | RRIRIRPPRLPRPRPRPGLHPRP | -0.000332
127 | RRIRTRPPRLPRPRPRPTGAPRP | 0.323
128 | RRIRDRPPRLPRPRPRPNDRPRP | -0.12
129 | RRIRPRPPRLPRPRPRPVPTPRP | 0.424
130 | RRIRVRPPRLPRPRPRPSRHPRP | -0.0783
131 | RRIRNRPPRLPRPRPRPQLKPRP | -0.0663
132 | RRIRTRPPRLPRPRPRPCLRPRP | 0.0877
133 | RRIRLRPPRLPRPRPRPTDAPRP | 0.193
134 | RRIRKRPPRLPRPRPRPPYIPRP | -0.69
135 | RRIRWRPPRLPRPRPRPCLMPRP | -0.225
136 | RRIRRRPPRLPRPRPRPNSMPRP | -0.233
137 | RRIRQRPPRLPRPRPRPYRMPRP | 3.17
138 | RRIRGRPPRLPRPRPRPMYHPRP | -0.242
139 | RRIRWRPPRLPRPRPRPNYYPRP | -0.705
140 | RRIRFRPPRLPRPRPRPKAFPRP | 0.133
141 | RRIRIRPPRLPRPRPRPSDNPRP | -0.421
142 | RRIRFRPPRLPRPRPRPVYGPRP | -0.286
143 | RRIRERPPRLPRPRPRPLATPRP | 0.133
144 | RRIRLRPPRLPRPRPRPQRCPRP | 0.487
145 | RRIRFRPPRLPRPRPRPTNWPRP | 0.426
146 | RRIRLRPPRLPRPRPRPCDHPRP | -0.239
147 | RRIRPRPPRLPRPRPRPPGPPRP | 0.576
148 | RRIRDRPPRLPRPRPRPLVWPRP | 0.831
149 | RRIRFRPPRLPRPRPRPGWGPRP | 0.076
150 | RRIRDRPPRLPRPRPRPYKPPRP | -0.0448
